Laboratory results reported in US20140193915, “COMPOSITIONS AND METHODS FOR CUSTOM SITE-SPECIFIC DNA RECOMBINASES” (Monsanto Technology, LLC, published 2014).

What was measured:
Test in all cases: cell_activity; E. coli
Conditions in all cases: tags: 6-His
sN-TALER IV-3.2 = molecular target: T1, sN-TALER IV-3.2 (synthetic)
T1 chain: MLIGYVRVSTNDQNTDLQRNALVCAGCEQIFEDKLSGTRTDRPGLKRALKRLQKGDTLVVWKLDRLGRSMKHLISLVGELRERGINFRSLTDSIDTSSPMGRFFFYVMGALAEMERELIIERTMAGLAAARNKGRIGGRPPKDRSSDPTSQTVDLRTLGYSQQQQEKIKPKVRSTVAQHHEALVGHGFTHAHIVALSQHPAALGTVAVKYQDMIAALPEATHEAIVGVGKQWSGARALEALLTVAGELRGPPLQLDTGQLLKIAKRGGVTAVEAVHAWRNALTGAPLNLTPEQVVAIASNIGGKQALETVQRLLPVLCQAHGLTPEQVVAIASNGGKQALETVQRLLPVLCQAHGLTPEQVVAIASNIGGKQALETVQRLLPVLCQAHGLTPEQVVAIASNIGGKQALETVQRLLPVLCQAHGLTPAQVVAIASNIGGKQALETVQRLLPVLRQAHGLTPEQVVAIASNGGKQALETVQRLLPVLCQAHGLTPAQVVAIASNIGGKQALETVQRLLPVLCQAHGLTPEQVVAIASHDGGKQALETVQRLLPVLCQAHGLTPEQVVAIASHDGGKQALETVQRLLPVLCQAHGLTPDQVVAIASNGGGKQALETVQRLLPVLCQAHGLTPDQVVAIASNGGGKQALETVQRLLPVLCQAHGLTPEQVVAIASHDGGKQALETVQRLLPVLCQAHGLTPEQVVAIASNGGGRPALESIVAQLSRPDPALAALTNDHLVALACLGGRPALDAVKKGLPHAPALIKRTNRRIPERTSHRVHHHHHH
Description: (§1) To test for recombination, E. coli DH5alpha cells were co-transformed with different combinations of TALER expression construct and TALER reporter construct pairs (Tables 6 and 7). The N-TALER expression and reporter constructs were in an approximate 1:1 mass ratio during the transformation. The co-transformed bacteria were plated on media with chloramphenicol, kanamycin, and X-gal then incubated at 37° C. for 18 to 36 hours. Control samples consisted of transformations using the reporter construct alone. Control transformants were similarly plated. The bacterial transformation protocol was either heat shock or electroporation per standard molecular biology techniques.

sN-TALER IV-4 = molecular target: T2, sN-TALER IV-4 (synthetic)
T2 chain: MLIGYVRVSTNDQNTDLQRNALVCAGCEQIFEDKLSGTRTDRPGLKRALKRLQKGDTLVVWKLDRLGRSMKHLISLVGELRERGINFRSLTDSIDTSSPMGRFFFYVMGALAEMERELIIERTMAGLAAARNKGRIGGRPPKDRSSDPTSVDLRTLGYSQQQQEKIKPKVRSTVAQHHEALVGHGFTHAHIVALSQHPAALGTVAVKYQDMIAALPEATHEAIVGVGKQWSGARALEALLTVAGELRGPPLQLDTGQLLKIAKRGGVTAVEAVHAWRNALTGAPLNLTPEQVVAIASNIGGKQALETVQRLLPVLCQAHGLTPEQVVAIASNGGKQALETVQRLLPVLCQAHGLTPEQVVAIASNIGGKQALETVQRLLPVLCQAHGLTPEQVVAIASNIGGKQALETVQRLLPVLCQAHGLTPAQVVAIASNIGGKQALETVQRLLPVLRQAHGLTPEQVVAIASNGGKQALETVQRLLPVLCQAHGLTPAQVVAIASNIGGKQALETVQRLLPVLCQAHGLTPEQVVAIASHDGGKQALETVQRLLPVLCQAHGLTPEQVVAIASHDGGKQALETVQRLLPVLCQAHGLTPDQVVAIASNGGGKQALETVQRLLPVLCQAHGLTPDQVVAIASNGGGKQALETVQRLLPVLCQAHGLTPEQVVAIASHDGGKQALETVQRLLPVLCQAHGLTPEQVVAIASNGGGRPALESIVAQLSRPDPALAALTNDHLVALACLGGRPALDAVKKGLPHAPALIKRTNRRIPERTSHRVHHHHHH
Description: as §1

[1] = molecular target: T3, pN-TALER IV-1-EE2 (GinL7C7-EE2-TALE13) (synthetic)
T3 chain: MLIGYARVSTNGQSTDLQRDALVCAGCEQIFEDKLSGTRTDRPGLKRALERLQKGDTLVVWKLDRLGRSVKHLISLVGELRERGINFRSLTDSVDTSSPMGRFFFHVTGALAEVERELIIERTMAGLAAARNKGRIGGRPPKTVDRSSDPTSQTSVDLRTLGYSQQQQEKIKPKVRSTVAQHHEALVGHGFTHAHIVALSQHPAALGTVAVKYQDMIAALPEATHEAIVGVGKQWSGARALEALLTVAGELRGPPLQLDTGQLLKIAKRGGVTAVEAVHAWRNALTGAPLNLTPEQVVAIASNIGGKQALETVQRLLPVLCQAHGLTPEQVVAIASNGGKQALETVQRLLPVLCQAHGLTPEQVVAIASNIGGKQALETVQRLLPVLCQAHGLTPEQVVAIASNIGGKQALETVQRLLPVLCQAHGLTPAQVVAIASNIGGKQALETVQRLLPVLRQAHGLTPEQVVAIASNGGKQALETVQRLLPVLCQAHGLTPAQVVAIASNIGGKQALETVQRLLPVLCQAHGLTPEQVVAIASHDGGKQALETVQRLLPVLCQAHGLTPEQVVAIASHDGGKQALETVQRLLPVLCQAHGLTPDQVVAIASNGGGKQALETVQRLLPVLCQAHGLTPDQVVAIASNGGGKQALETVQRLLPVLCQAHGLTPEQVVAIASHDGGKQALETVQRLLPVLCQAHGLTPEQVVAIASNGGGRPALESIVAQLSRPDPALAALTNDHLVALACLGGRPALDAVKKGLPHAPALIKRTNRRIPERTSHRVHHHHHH

B1: Gin18TALE+0 (dsDNA)
DNA 1: AGAAGGTATTTATACCAAAACCATGGTTTACATATAAATACCTTCT
DNA 2: AGAAGGTATTTATATGTAAACCATGGTTTTGGTATAAATACCTTCT
activity (sN-TALER IV-3.2): 3 score | activity (sN-TALER IV-4): 4 score | activity [1]: 1 score

B2: Gin18TALE+1 (dsDNA)
DNA 1: AGAAGGTATTTATATCCAAAACCATGGTTTACAATATAAATACCTTCT
DNA 2: AGAAGGTATTTATATTGTAAACCATGGTTTTGGATATAAATACCTTCT
activity [1]: 1 score

B3: Gin20TALE+0 (dsDNA)
DNA 1: AGAAGGTATTTATATCCAAAACCATGGTTTACAGTATAAATACCTTCT
DNA 2: AGAAGGTATTTATACTGTAAACCATGGTTTTGGATATAAATACCTTCT
activity (sN-TALER IV-3.2): 1 score | activity (sN-TALER IV-4): 1 score | activity [1]: 1 score
